Biological target: the molecule itself
Experiment: crystal structure; hanging drop vapor diffusion; SsoRadA 24 mg/ml in 30 mM Tris-HCl pH 8.0; reservoir 100 mM KCl, 25 mM MgCl2, 15% isopropanol, 50 mM sodium cacodylate pH 6.0; space group P3_(1), 1.93 Å; 3_(1) overwound right-handed filament

B1: Sulfolobus solfataricus RadA (natural protein, UniProt Q55075 1-324, looked up)
chain: MSNEVEQKKNIKTINDLPGISQTVINKLIEAGYSSLETLAVASPQDLSVAAGIPLSTAQKIIKEARDALDIRFKTALEVKKERMNVKKISTGSQALDGLLAGGIETRTMTEFFGEFGSGKTQLCHQLSVNVQLPPEKGGLSGKAVYIDTEGTFRWERIENMAKALGLDIDNVMNNIYYIRAINTDHQIAIVDDLQELVSKDPSIKLIVVDSVTSHFRAEYPGRENLAVRQQKLNKHLHQLTRLAEVYDIAVIITNQVMARPDMFYGDPTVAVGGHTLYHVPGIRIQLKKSRGNRRIARVVDAPHLPEGEVVFALTEEGIRDAEE
notes: RadA of Sulfolobus solfataricus; Forms a helical filament in the crystal (three protomers per turn, 98 Å pitch; three protomers in the asymmetric unit, each belonging to a filament of its own); also called SsoRadA; wild-type SsoRadA; source: expressed and purified as described previously [16]
B1: binds.

Source: publication PMC1964548, “Structural and Functional Analyses of Five Conserved Positively Charged Residues in the L1 and N-Terminal DNA Binding Motifs of Archaeal RadA Protein” (PLoS ONE, 2007)
